Literature values in publication PMC3376167.

Biological target: ARNT PAS-B (Homo sapiens) (UniProt P27540)
Sequence (P27540 356-470): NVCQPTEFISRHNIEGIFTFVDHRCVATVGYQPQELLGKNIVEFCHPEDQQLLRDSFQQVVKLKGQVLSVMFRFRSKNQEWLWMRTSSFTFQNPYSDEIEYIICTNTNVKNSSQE

HIF-2α PAS-B, sequence (Q99814 239-350): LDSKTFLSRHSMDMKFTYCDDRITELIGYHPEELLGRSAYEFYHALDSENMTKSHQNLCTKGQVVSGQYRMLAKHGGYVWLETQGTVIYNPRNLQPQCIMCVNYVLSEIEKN

Kd: 120 µM
Substance: HIF-2α PAS-B (from UniProt Q99814)
